Experimental data reported in US20140087995A1 (published 2014).
Numbered stars: 1 amine (or outer) side, 2 acyl side, 3 side chain; on linkers, the order of the positions; unused ones are H or OH. Bridge positions count the residues as written; N and C are the ends. Side chains are listed from the residue outwards. Ends that are not written are not given here. * marks the point of attachment. C20 diacid = O=C(O)CCCCCCCCCCCCCCCCCCC(=O)*; γGlu = O=C(O)[C@H](CCC(=O)[*:2])N[*:1]

T1: human calcitonin receptor (human, UniProt P30988 25-474)
T1 construct: whole, on cells; Used as cell membranes; also called hCTR; hCT
T1 sequence (looked up): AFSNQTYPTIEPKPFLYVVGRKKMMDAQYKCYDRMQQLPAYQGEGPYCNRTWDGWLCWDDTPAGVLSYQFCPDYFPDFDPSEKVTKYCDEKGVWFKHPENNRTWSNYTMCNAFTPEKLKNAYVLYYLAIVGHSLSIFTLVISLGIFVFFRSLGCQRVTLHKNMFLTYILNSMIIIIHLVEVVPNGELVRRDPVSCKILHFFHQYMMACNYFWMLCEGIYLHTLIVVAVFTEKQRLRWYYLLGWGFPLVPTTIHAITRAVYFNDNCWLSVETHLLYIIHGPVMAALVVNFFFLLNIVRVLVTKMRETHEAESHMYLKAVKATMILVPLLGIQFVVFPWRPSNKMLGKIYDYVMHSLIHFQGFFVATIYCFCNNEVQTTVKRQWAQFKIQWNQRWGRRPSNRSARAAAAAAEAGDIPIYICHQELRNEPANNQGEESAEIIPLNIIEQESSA

B1: N^ε1-[(4S)-4-carboxy-4-(19-carboxynonadecanoylamino)butanoyl]-[His14,Arg17,Pro21,Pro27,His35]-h-amylin (peptide)
peptide: K([γGlu-C20 diacid])CNTATCATQRLAHFLRHSSPNFGAIPSSTNVGSHTY-NH2
modifications: disulfide 2-7; N-terminus assumed
SMILES: CC[C@H](C)[C@H](NC(=O)[C@H](C)NC(=O)CNC(=O)[C@H](Cc1ccccc1)NC(=O)[C@H](CC(N)=O)NC(=O)[C@@H]1CCCN1C(=O)[C@H](CO)NC(=O)[C@H](CO)NC(=O)[C@H](Cc1c[nH]cn1)NC(=O)[C@H](CCCNC(=N)N)NC(=O)[C@H](CC(C)C)NC(=O)[C@H](Cc1ccccc1)NC(=O)[C@H](Cc1c[nH]cn1)NC(=O)[C@H](C)NC(=O)[C@H](CC(C)C)NC(=O)[C@H](CCCNC(=N)N)NC(=O)[C@H](CCC(N)=O)NC(=O)[C@@H](NC(=O)[C@H](C)NC(=O)[C@@H]1CSSC[C@H](NC(=O)[C@@H](N)CCCCNC(=O)CC[C@H](NC(=O)CCCCCCCCCCCCCCCCCCC(=O)O)C(=O)O)C(=O)N[C@@H](CC(N)=O)C(=O)N[C@@H]([C@@H](C)O)C(=O)N[C@@H](C)C(=O)N[C@@H]([C@@H](C)O)C(=O)N1)[C@@H](C)O)C(=O)N1CCC[C@H]1C(=O)N[C@@H](CO)C(=O)N[C@@H](CO)C(=O)N[C@H](C(=O)N[C@@H](CC(N)=O)C(=O)N[C@H](C(=O)NCC(=O)N[C@@H](CO)C(=O)N[C@@H](Cc1c[nH]cn1)C(=O)N[C@H](C(=O)N[C@@H](Cc1ccc(O)cc1)C(N)=O)[C@@H](C)O)C(C)C)[C@@H](C)O
notes: also called compound 66
B2: N^ε1-[(4S)-4-carboxy-4-[[(4S)-4-carboxy-4-(19-carboxynonadecanoylamino)butanoyl]amino]butanoyl]-[Glu14,Arg17,Pro21,Pro27,His34,Glu35]-h-amylin (peptide)
peptide: K([γGlu-γGlu-C20 diacid])CNTATCATQRLAEFLRHSSPNFGAIPSSTNVGHETY-NH2
modifications: disulfide 2-7; N-terminus assumed
SMILES: CC[C@H](C)[C@H](NC(=O)[C@H](C)NC(=O)CNC(=O)[C@H](Cc1ccccc1)NC(=O)[C@H](CC(N)=O)NC(=O)[C@@H]1CCCN1C(=O)[C@H](CO)NC(=O)[C@H](CO)NC(=O)[C@H](Cc1c[nH]cn1)NC(=O)[C@H](CCCNC(=N)N)NC(=O)[C@H](CC(C)C)NC(=O)[C@H](Cc1ccccc1)NC(=O)[C@H](CCC(=O)O)NC(=O)[C@H](C)NC(=O)[C@H](CC(C)C)NC(=O)[C@H](CCCNC(=N)N)NC(=O)[C@H](CCC(N)=O)NC(=O)[C@@H](NC(=O)[C@H](C)NC(=O)[C@@H]1CSSC[C@H](NC(=O)[C@@H](N)CCCCNC(=O)CC[C@H](NC(=O)CC[C@H](NC(=O)CCCCCCCCCCCCCCCCCCC(=O)O)C(=O)O)C(=O)O)C(=O)N[C@@H](CC(N)=O)C(=O)N[C@@H]([C@@H](C)O)C(=O)N[C@@H](C)C(=O)N[C@@H]([C@@H](C)O)C(=O)N1)[C@@H](C)O)C(=O)N1CCC[C@H]1C(=O)N[C@@H](CO)C(=O)N[C@@H](CO)C(=O)N[C@H](C(=O)N[C@@H](CC(N)=O)C(=O)N[C@H](C(=O)NCC(=O)N[C@@H](Cc1c[nH]cn1)C(=O)N[C@@H](CCC(=O)O)C(=O)N[C@H](C(=O)N[C@@H](Cc1ccc(O)cc1)C(N)=O)[C@@H](C)O)C(C)C)[C@@H](C)O
B3: N^ε1-[(4S)-4-carboxy-4-(19-carboxynonadecanoylamino)butanoyl]-[His14,Arg17,Pro21,Pro27]-h-amylin (peptide)
peptide: K([γGlu-C20 diacid])CNTATCATQRLAHFLRHSSPNFGAIPSSTNVGSNTY-NH2
modifications: disulfide 2-7; N-terminus assumed
SMILES: CC[C@H](C)[C@H](NC(=O)[C@H](C)NC(=O)CNC(=O)[C@H](Cc1ccccc1)NC(=O)[C@H](CC(N)=O)NC(=O)[C@@H]1CCCN1C(=O)[C@H](CO)NC(=O)[C@H](CO)NC(=O)[C@H](Cc1c[nH]cn1)NC(=O)[C@H](CCCNC(=N)N)NC(=O)[C@H](CC(C)C)NC(=O)[C@H](Cc1ccccc1)NC(=O)[C@H](Cc1c[nH]cn1)NC(=O)[C@H](C)NC(=O)[C@H](CC(C)C)NC(=O)[C@H](CCCNC(=N)N)NC(=O)[C@H](CCC(N)=O)NC(=O)[C@@H](NC(=O)[C@H](C)NC(=O)[C@@H]1CSSC[C@H](NC(=O)[C@@H](N)CCCCNC(=O)CC[C@H](NC(=O)CCCCCCCCCCCCCCCCCCC(=O)O)C(=O)O)C(=O)N[C@@H](CC(N)=O)C(=O)N[C@@H]([C@@H](C)O)C(=O)N[C@@H](C)C(=O)N[C@@H]([C@@H](C)O)C(=O)N1)[C@@H](C)O)C(=O)N1CCC[C@H]1C(=O)N[C@@H](CO)C(=O)N[C@@H](CO)C(=O)N[C@H](C(=O)N[C@@H](CC(N)=O)C(=O)N[C@H](C(=O)NCC(=O)N[C@@H](CO)C(=O)N[C@@H](CC(N)=O)C(=O)N[C@H](C(=O)N[C@@H](Cc1ccc(O)cc1)C(N)=O)[C@@H](C)O)C(C)C)[C@@H](C)O
notes: also called compound 70
B4: N^ε1-[(4S)-4-carboxy-4-[[(4S)-4-carboxy-4-(19-carboxynonadecanoylamino)butanoyl]amino]butanoyl]-[Glu14,Arg17,Pro21,Pro27,Arg34,Glu35]-h-amylin (peptide)
peptide: K([γGlu-γGlu-C20 diacid])CNTATCATQRLAEFLRHSSPNFGAIPSSTNVGRETY-NH2
modifications: disulfide 2-7; N-terminus assumed
SMILES: CC[C@H](C)[C@H](NC(=O)[C@H](C)NC(=O)CNC(=O)[C@H](Cc1ccccc1)NC(=O)[C@H](CC(N)=O)NC(=O)[C@@H]1CCCN1C(=O)[C@H](CO)NC(=O)[C@H](CO)NC(=O)[C@H](Cc1c[nH]cn1)NC(=O)[C@H](CCCNC(=N)N)NC(=O)[C@H](CC(C)C)NC(=O)[C@H](Cc1ccccc1)NC(=O)[C@H](CCC(=O)O)NC(=O)[C@H](C)NC(=O)[C@H](CC(C)C)NC(=O)[C@H](CCCNC(=N)N)NC(=O)[C@H](CCC(N)=O)NC(=O)[C@@H](NC(=O)[C@H](C)NC(=O)[C@@H]1CSSC[C@H](NC(=O)[C@@H](N)CCCCNC(=O)CC[C@H](NC(=O)CC[C@H](NC(=O)CCCCCCCCCCCCCCCCCCC(=O)O)C(=O)O)C(=O)O)C(=O)N[C@@H](CC(N)=O)C(=O)N[C@@H]([C@@H](C)O)C(=O)N[C@@H](C)C(=O)N[C@@H]([C@@H](C)O)C(=O)N1)[C@@H](C)O)C(=O)N1CCC[C@H]1C(=O)N[C@@H](CO)C(=O)N[C@@H](CO)C(=O)N[C@H](C(=O)N[C@@H](CC(N)=O)C(=O)N[C@H](C(=O)NCC(=O)N[C@@H](CCCNC(=N)N)C(=O)N[C@@H](CCC(=O)O)C(=O)N[C@H](C(=O)N[C@@H](Cc1ccc(O)cc1)C(N)=O)[C@@H](C)O)C(C)C)[C@@H](C)O
B5: N^ε1-[(4S)-4-carboxy-4-[[(4S)-4-carboxy-4-(19-carboxynonadecanoylamino)butanoyl]amino]butanoyl]-[Glu14,Arg17,Pro21,Pro27,Arg34]-h-amylin (peptide)
peptide: K([γGlu-γGlu-C20 diacid])CNTATCATQRLAEFLRHSSPNFGAIPSSTNVGRNTY-NH2
modifications: disulfide 2-7; N-terminus assumed
SMILES: CC[C@H](C)[C@H](NC(=O)[C@H](C)NC(=O)CNC(=O)[C@H](Cc1ccccc1)NC(=O)[C@H](CC(N)=O)NC(=O)[C@@H]1CCCN1C(=O)[C@H](CO)NC(=O)[C@H](CO)NC(=O)[C@H](Cc1c[nH]cn1)NC(=O)[C@H](CCCNC(=N)N)NC(=O)[C@H](CC(C)C)NC(=O)[C@H](Cc1ccccc1)NC(=O)[C@H](CCC(=O)O)NC(=O)[C@H](C)NC(=O)[C@H](CC(C)C)NC(=O)[C@H](CCCNC(=N)N)NC(=O)[C@H](CCC(N)=O)NC(=O)[C@@H](NC(=O)[C@H](C)NC(=O)[C@@H]1CSSC[C@H](NC(=O)[C@@H](N)CCCCNC(=O)CC[C@H](NC(=O)CC[C@H](NC(=O)CCCCCCCCCCCCCCCCCCC(=O)O)C(=O)O)C(=O)O)C(=O)N[C@@H](CC(N)=O)C(=O)N[C@@H]([C@@H](C)O)C(=O)N[C@@H](C)C(=O)N[C@@H]([C@@H](C)O)C(=O)N1)[C@@H](C)O)C(=O)N1CCC[C@H]1C(=O)N[C@@H](CO)C(=O)N[C@@H](CO)C(=O)N[C@H](C(=O)N[C@@H](CC(N)=O)C(=O)N[C@H](C(=O)NCC(=O)N[C@@H](CCCNC(=N)N)C(=O)N[C@@H](CC(N)=O)C(=O)N[C@H](C(=O)N[C@@H](Cc1ccc(O)cc1)C(N)=O)[C@@H](C)O)C(C)C)[C@@H](C)O
notes: also called compound 88

molecular target: T1, human calcitonin receptor; assay: ratio of hCTR IC50 to hAmylin-R IC50 (reference: human amylin receptor)
How it was run: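 Competition binding by SPA with cell membranes (35 ng/μL) and SPA beads in 50 mM Hepes pH 7.4 with 1 mM CaCl2, 5 mM MgCl2, 0.1% OA and 0.02% Tween20. Incubated 120 min at 25 °C with shaking, then counted.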

Ratio hCT/hAmylin binding	Binder
45.5	B1
29.1	B2
60.8	B3
14.7	B4
46.5	B5

molecular target: T1, human calcitonin receptor; assay: SPA competition on BHK cell membranes, 125I-calcitonin as radioligand (Assay VII)
How it was run: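 BHK hCTR membranes 35 ng/μL + SPA beads 0.05 mg/well; buffer 50 mM Hepes pH 7.4, 1 mM CaCl2, 5 mM MgCl₂, 0.1% OA, 0.02% Tween20. 120 min, 25° C., shaking. Scintillation count; IC50 by one-site binding competition.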

IC50 [nM]	Binder
18	B1
15.2	B2
10.3	B3
14.1	B4
34.9	B5
